Changes are numbered by the printed parent chain.
B1: E96-GS10-I1 pegylated (designed binder)
E/I tandem 10Fn3 chain: MGVSDVPRDLEVVAATPTSLLISWASNRGTYQYYRITYGETGGNSPVQEFTVPGGVSTATISGLKPGVDYTITVYAVTDAFNPTTHEYNYFTTPISINYRTEIDKGSGSGSGSGSGSGSGSGSGSVSDVPRDLEVVAATPTSLLISWSARLKVARYYRITYGETGGNSPVQEFTVPKNVYTATISGLKPGVDYTITVYAVTRFRDYQPISINYRTEIDKPCQHHHHHH
modifications: Cys of the C-terminal Cys tail conjugated to 40 kDa branched PEG
B2: E105-GS10-I1 pegylated (designed binder)
E/I tandem 10Fn3 chain: MGVSDVPRDLEVVAATPTSLLISWDAPTSRYQYYRITYGETGGNSPVQEFTVPGGLSTATISGLKPGVDYTITVYAVTDYKPHADGPHTYHESPISINYRTEIDKGSGSGSGSGSGSGSGSGSGSVSDVPRDLEVVAATPTSLLISWSARLKVARYYRITYGETGGNSPVQEFTVPKNVYTATISGLKPGVDYTITVYAVTRFRDYQPISINYRTEIDKPCQHHHHHH
modifications: Cys of the C-terminal Cys tail conjugated to 40 kDa branched PEG
B3: E85-GS10-I1 pegylated (designed binder)
E/I tandem 10Fn3 chain: MGVSDVPRDLEVVAATPTSLLISWTQGSTHYQYYRITYGETGGNSPVQEFTVPGMVYTATISGLKPGVDYTITVYAVTDYFDRSTHEYKYRTTPISINYRTEIDKGSGSGSGSGSGSGSGSGSGSVSDVPRDLEVVAATPTSLLISWSARLKVARYYRITYGETGGNSPVQEFTVPKNVYTATISGLKPGVDYTITVYAVTRFRDYQPISINYRTEIDKPCQHHHHHH
modifications: Cys of the C-terminal Cys tail conjugated to 40 kDa branched PEG
B4: E90-GS10-I1 pegylated (designed binder)
E/I tandem 10Fn3 chain: MGVSDVPRDLEVVAATPTSLLISWYWEGLPYQYYRITYGETGGNSPVQEFTVPRDVNTATISGLKPGVDYTITVYAVTDWYNPDTHEYIYHTIPISINYRTEIDKGSGSGSGSGSGSGSGSGSGSVSDVPRDLEVVAATPTSLLISWSARLKVARYYRITYGETGGNSPVQEFTVPKNVYTATISGLKPGVDYTITVYAVTRFRDYQPISINYRTEIDKPCQHHHHHH
modifications: Cys of the C-terminal Cys tail conjugated to 40 kDa branched PEG
B5: E105-GS10-I1 pegylated (designed binder)
chain: B2 E/I tandem 10Fn3 chain
modifications: chain 1 pos 221: Cys carrying a maleimide-linked 40 kDa branched PEG, written C
notes: lower row of the two named E105-GS10-I1 pegylated
B6: I1-GS10-E112 pegylated (designed binder)
I/E tandem 10Fn3 chain: MGVSDVPRDLEVVAATPTSLLISWSARLKVARYYRITYGETGGNSPVQEFTVPKNVYTATISGLKPGVDYTITVYAVTRFRDYQPISINYRTEIDKGSGSGSGSGSGSGSGSGSGSVSDVPRDLEVVAATPTSLLISWDAGAVTYQYYRITYGETGGNSPVQEFTVPGGVRTATISGLKPGVDYTITVYAVTDYKPHADGPHTYHEYPISINYRTEIDKPCQHHHHHH
modifications: Cys of the C-terminal Cys tail conjugated to 40 kDa branched PEG
B7: E5-GS10-I1 pegylated (designed binder)
E/I tandem 10Fn3 chain: B2 E/I tandem 10Fn3 chain with D25W, T28V, S29D, G54R, G55D, L56V, S57Y
modifications: Cys of the C-terminal Cys tail conjugated to 40 kDa branched PEG
B8: E86 (designed binder)
10Fn3 domain: MGVSDVPRDLEVVAATPTSLLISWDSGENNYQYYRITYGETGGNSPVQEFTVPGGVRTATISGLKPGVDYTITVYAVTDYYNPKTHEYNYLTIPISINYRTEIDKPSQ
B9: E87 (designed binder)
10Fn3 domain: MGVSDVPRDLEVVAATPTSLLISWGSPLIEYQYYRITYGETGGNSPVQEFTVPGGLSTATISGLKPGVDYTITVYAVTDYFNPATHEYTYHVSPISINYRTEIDKPSQ
B10: E88 (designed binder)
10Fn3 domain: MGVSDVPRDLEVVAATPTSLLISWSATNKTYQYYRITYGETGGNSPVQEFTVPGGVRTATISGLKPGVDYTITVYAVTDYFNPTTHEYIYQTTPISINYRTEIDKPSQ
B11: E89 (designed binder)
10Fn3 domain: MGVSDVPRDLEVVAATPTSLLISWDDPAANRQYYRITYGETGGNSPVQEFTVPYDLRTATISGLKPGVDYTITVYAVTDYYNPATHQYKYSQSPISINYRTEIDKPSQ
B12: E90 (designed binder)
10Fn3 domain: MGVSDVPRDLEVVAATPTSLLISWYWEGLPYQYYRITYGETGGNSPVQEFTVPRDVNTATISGLKPGVDYTITVYAVTDWYNPDTHEYIYHTIPISINYRTEIDKPSQ
B13: E91 (designed binder)
10Fn3 domain: MGVSDVPRDLEVVAATPTSLLISWSAPWRTYQYYRITYGETGGNSPVQEFTVPYDVYTATISGLKPGVDYTITVYAVTDYLNPNTLEYTYQRIPISINYRTEIDKPSQ
B14: E92 (designed binder)
10Fn3 domain: B10 10Fn3 domain with S25Q, T27A, K29H, T30S, Y80F, T84V, I89K, Q91R, T93I
B15: E93 (designed binder)
10Fn3 domain: MGVSDVPRDLEVVAATPTSLLISWDSGRGSYQYYRITYGETGGNSPVQEFTVPGGVRTATISGLKPGVDYTITVYAVTDYKPHADGPHTYHEYPISINYRTEIDKPSQ
B16: E94 (designed binder)
10Fn3 domain: B15 10Fn3 domain with D25N, S26N, R28G, G29R, S30N, G54Y, G55D, R57Y
B17: E95 (designed binder)
10Fn3 domain: B9 10Fn3 domain with G25V, S26V, L28Q, I29G, E30M, L56V, T89N, V92S, S93I
B18: E96 (designed binder)
10Fn3 domain: B10 10Fn3 domain with S25A, A26S, T27N, N28R, K29G, R57S, Y80A, I89N, Q91F
B19: E97 (designed binder)
10Fn3 domain: B15 10Fn3 domain with D25L, S26P, R28K, G29L, S30R, G54H, G55D, V56L, Y93S
B20: E98 (designed binder)
10Fn3 domain: B15 10Fn3 domain with S26A, G27P, R28T, G29S, S30R, Y80H

These binders were tested against T1, Recombinant human EGFR-Fc (aa 1-645 of the extracellular domain of human EGFR fused to human Fc) (human, UniProt P00533 25-645) (assay: not given).
T1 construct: range 1-645; bought from R&D Systems; also called EGFR645-Fc; EGFR-Fc (HER-1); not shown: human Fc

Binder	Kd
B1	24.2 nM
B2	9.28 nM
B3	4.76 nM
B4	13.5 nM
B5	7.65 nM

Each binder was assayed against T2, EGFR on the surface of human tumour cells (A431, H292) (human, UniProt P00533 25-1210) (assay: cell-based or functional assay).

Binder	IC50, EGF-induced EGFR phosphorylation, A431 cells, In Cell Western	IC50, EGF-induced ERK phosphorylation, A431 cells, In Cell Western	IC50, EGF-stimulated EGFR phosphorylation, H292 cells, ELISA
B1	61 nM	54 nM	10 nM
B2	56 nM	61 nM	15 nM
B3	15 nM	15 nM	4 nM
B4	65 nM	63 nM	10 nM
B5	61 nM	49 nM	16 nM

Each binder was assayed against IGF-IR on human tumour cells (H292, MCF-7, RH41) (human, UniProt P08069 31-1367) (assay: cell-based or functional assay).

Binder	IC50, IGF1-stimulated IGFR phosphorylation, H292 cells, ELISA
B6	0.3 nM
B1	0.4 nM
B2	0.5 nM
B7	0.4 nM
B3	0.3 nM
B4	0.4 nM
B5	0.5 nM

These binders were tested against T3, IGF1R-Fc (extracellular domain of human IGF1R aa 1-932 fused to hinge and constant regions of human IgG1) (human, UniProt P08069 31-932) (assay: not given).
T3 construct: range 1-932; made in house by transient transfection, purified on Protein A; also called IGF-IR-Fc; not shown: hinge and constant regions of human IgG1

Binder	Kd
B1	0.96 nM
B2	1.35 nM
B7	1.16 nM
B3	0.75 nM
B4	1.5 nM
B5	1.19 nM

Biological target: T2, EGFR on the surface of human tumour …
Test: cell-based or functional assay
Remark: another data set of the same source

Binder	% inhibition of EGFR phosphorylation at 100 nM binder, cell-based assay
B8	84.7%
B9	87%
B10	89.3%
B11	82.6%
B12	81.3%
B13	84.7%
B14	88.5%
B15	76.9%
B16	78.7%
B17	98%
B18	91.7%
B19	89.3%
B20	75.8%

Each binder was assayed against T2, EGFR on the surface of human tumour … (assay: not given).

Binder	IC50
B1	43.8 nM
B2	75 nM
B3	65.9 nM
B4	69.1 nM
B5	93.8 nM

— patent publication US20180037631A1 (Bristol-Myers Squibb, published 2018)
